We go through 13 sequences from a protein production outcome set (Wang et al. 2014).

A short description of this data set: label from the status in PepcDB records.
For “MTFSAPAPTQLDPVVRHLYVHVPFCPSICPYCDFHVLTRQAGLVERYLERLEQEAAELAAAYAVDLDTVYLGGGTPSFLRDHELRALVESVQRHLGWGRAENTLEINPGTVSTERAALWRSLGFDRASVGVQSLDDATLKFLGRRHDARQARDAVSRLIAQDFRVSGDLITAVPGQPLDSDIHGLVELGVGHVSAYTLTIEPGTEFARRGVQVDEDAEREGFERTEELLAGHGFSRYEVSNYARAGQESRHNLSYWQGKTYLGLGPGAAGHYPVPTPGADALTLRRTNPHLHDWLVGQQGETLLVDPHEYVTDALFMGLRLRRGLDLADLTRRSGVDVAGRYGLVIERQVRLGLLEHSGTNLRATAQGWWVLNRIVREFMEVDAAETA”, the protein production result is recorded as “failed”. In the case of “MTFSNQLTILRIILVPVFVLLLMQDSAWYRLLGVIVFVTASLTDIYDGYHARKYGEVTRLGAFLDPLADKLLITTAFLFYVWEGYLALWMVLLVAARDIVVTGLRVYAEHIDHPVVTSKEAKYKTFAQNLFAYVIMLFILLKEKSFFGPKMAAFMEVILHSPWLGYAMFAITLFTVWTGVSYLISNRRLIFRNSAGGR”, the protein production entry is on record as “not failed”. In the case of “MTFTDALGQAHAPVDTTPRIASLVPSITDLLFSLDLGGQLVARTGFCIHPREAVRAIPKVGGTKTVKLDRLRELAPTHVIVNIDENTRETADKLREFVPHVIVTHPCAPEDNLTLYGLLGGIFRREAQAQRLSEALARELAALRGQVFPLRRVLYAIWQDPWMTVARDTYISRMLALIGCQTWPEDPAPVQCGTGRHGDCARPNRPDTRYPTFRWSDEVVRNIDCVLLSTEPYSFTEAHADALEKQIGKPVYLVDGEMVSWYGSRAIEGVRYLGRLAQALT”, the protein production result was “failed”. The same measure for “MTFYDREAELDTLSDAVESPGADFVVVYGRRRVGKTELLKEFCANRPHIYFLAAQEAEHRQREKFLDQVADYFDERVPRIDGWDEAFEYLGEQLQREDLVVVIDEFPYLVAENDSLPSYVQGFVDQELDGTDSMIVLCGSSVSTMESEILGHESPLYGRRTAQLDVTPFSFQQAREVISYDIQDAIRSYAVTGGTPMYLTLFDYTQSLAANIQSHVLSPSAVLYNEPEFLLRTELRNPARYMSILEAVALGHTTPNEISGATGIDSGPLSKYLQTLRRLRLIERDVPVMASGKKSKRSRYRVADEFLRFWFRYVEPNRSSIEEAPEIVYDGTIEPDLPTHVATTFEDVCQEAVWEGIRRGTFDPYSEVGRWWYGEEEIDIVGLAPNDDRVLLAECKWTTDPVGEDLVESLRAKAEHVRWGPPDRDEQFALFSKSGFVDGLEAQLDDSWSLFTVADIDDLLTPS”: “failed”. With “MTGCFLWQLYLPKLQTGSLKPEVPPAPVKMCPRHPELVPLAHPLPVLKEALEKVDGILRKAMLAPGLAAMSALVIHNDTVLWTGNFGRKNGSDPNSGTPNEYTMYRIASISKIFPVLMLYRLWEEGIVDSLDDPLERYASTFSINNPLGTAQGPGAQGPTGESEEMGSLPRPSPVTLRRMASQLSGLPRRLRGTSLLWRGSTQEALSLLKDDVLVADPGTRCHYSTLAFSLLAHVLAAHRAQGDYERWVSEQVLEPLGMSDTGFALTGTVRARLAAGFYGSGRSAPLYDLGWYRPSGQMYSTAADLARLAAALLGAGPRRLLRPDSLATLLAPLRACAHGYFASETGTPWEFHERRGYRVARKDGDLDGYAASLALVPPLRLGFVLLLAGPRPPTRDLVADALDTLLPALERALREAELAPAPPPRARPFAGFFTFANRTFYEVRAAGPRGELRLRQFGPRVEALVPAAFRSLALRHVRGRVFQLHVAREFPCALPLADAWLSLESQHGQLVRFYPLDRHGLAPGFDSCDSMDGWNTTCSAVHFLEDVWVVYNLQFL”, the protein production entry was “failed”. “MTGDYALCGWRVRIDRPSTFAPPWIGEDRPVDITIRHAAFSPPSPPLLFESPLVGVFAEGAIVLRINPGLGFLIEGGARITVDATAQTGEAEIATFLFGQCLGFLALQRRQPALRAASVVRDGRAVVLAGAAGVGKSTLAAALMAKGWGLLADEVTLIDPRTLLIPPAFGRIKLWKDSATHLGLEAAALPAVRPGWNKGHAPYGGHLAPAPVPLAAIILIEQAYTAKTAGIDKIAPREALAALNDQLHGGTFAGALAARPACFDLLTTLVGGVPVFQLSRPWHGMTLAPLVELLTAEMARLEHHHHHH”: the protein production result is listed as “failed”.

For the sequence “MTGEGRYEEVEAEARTLAALPRRPWRRRPPHWEARVLATGAAVMHGRMAEALDELDTLIAELEPVGLNSQMLRLIARSNRVVALSGLRRYAEAETVANGVLRELNQIAHRAPVSGLETNTLRHLATVLCGLARHEEAEAVVRGNLSRANGPAAGVLHTTLAQSLNGQGRYEEALAEVRRSPPRPPRYAAGHPDLVAAEALYGLGRRAEAEDAVRRSLADCERWLHPAHPRTGEARALLARVTGPKPGEESRGEPGE”, the protein production result was “failed”. The same measure for “MTGFASLPVEFLITVFAMSFSIGFVAIIAGTGGGVLFTSCLWDLHQYIRTNKSNRTSFGDCWAIGPTINLIMLAPLKIATTTSAVVISIGDTAAIFPYFMSGSLLPIFAVPAVAGLMTGARFGSAVAVRVKAKYIRYTLTTILLFAGIKLIWVGLWMLEG”: “failed”.

For the sequence “MTGIWEENTGKQSGDHSTPLRWRCFKHEKNRPPSLVPGQQSGIILACFRRGPPPRCLVKRLPYPGSALVLRRYIMSTSPVTLMVARRVADGRYQDLIAWLREGEQLATDFPGYLGSGVLAPPPNDDEFQIIFRFADESTLHTWEHSASRTAWLARGSDLFAHPSEHRVSGIDGWFGAAGHRPPRWKQAVAIWLAFFPVSLLFNFVLGPLLGDLSLLPRVFVSTLALTPLMVYFFIPLSTRLLANWLNSTPARPLPATPSTQNP”, the protein production result is “failed”.

With “MTGKAKPKKHTAKEIQAKIDAALTNRGGGKAGIADRTGKEKGGHAKYECPHCKITAPGLKTMQIHHESKHPNIIYEESKLVNLHAVLAPVAESKPKPGIRGSLKK”, the protein production result is listed as “failed”.

With “MTGPLAAARSVAATKSMTAPTVDERPDIKKGLAGVVVDTTAISKVVPQTNSLTYRGYPVQDLAARCSFEQVAFLLWRGELPTDAELALFSQRERASRRVDRSMLSLLAKLPDNCHPMDVVRTAISYLGAEDPDEDDAAANRAKAMRMMAVLPTIVAIDMRRRRGLPPIAPHSGLGYAQNFLHMCFGEVPETAVVSAFEQSMILYAEHGFNASTFAARVVTSTQSDIYSAVTGAIGALKGRLHGGANEAVMHDMIEIGDPANAREWLRAKLARKEKIMGFGHRVYRHGDSRVPTMKRALERVGTVRDGQRWLDIYQVLAAEMASATGILPNLDFPTGPAYYLMGFDIASFTPIFVMSRITGWTAHIMEQATANALIRPLSAYCGHEQRVLPGTF”, the protein production result is “not failed”. The same measure for “MTGQVLDGRYRLVERLGSGGMGEVWRGHDERLGRTVAIKLIHPGASVDDEAVALFRREAQVTARLAGHPNIVILYDYGTDGDTVYTVMELVTGCSLSALLRERGRLPVELAVRWGAHVCAGLAAAHAVGVVHRDIKPSNLMVVDADAPDGGTVKLVDFGIAGFHEAALHQRTLPPTGEPFGTPLYVSPEQIQMLPVGAFSDLYSFGAVLFHMLTGQPPFHAAEPMPVLRMHLTEPPPNPAELRPDVPAELAELVLMLLAKDPGQRPDNALWVRDRLLSLSGTSPPASAASPTESASREAQMRRLEQSWVEAERLAAAGQAAAAAQRIGALLGELAAIYGADHPATLEARRRHASLTSRAGDPERAAALFDTLVADLDRIYGHAHPETYAARHHLAAATEQAGRRAEAAVLRSELVDALTAQYGPQAARLLHPRLFYAVDLAEAGDFTGAEKLLRDLAAALEQQLGAHTPALQIVHHYLDAAAAFASETAGAEPPHPNRFRESTRLDGRPPPHPLRQRLTRWLRSTTEL”: “failed”; for “MTGTPCPDFTLPGTAGADFQLSSSRKPLVIYFYPKDNTPGCTNESMAFRDLHPEFAALGAEIVGISRDSLKSHQNFKAKLELPFELLSDSEETACSLFGVIKMKNMYGKQVRGIERSTFVIDASGKVSREWRGVKVPGHAEEVLAYVKTLK”: “failed”.
